Laboratory results reported in publication PMC4686829.

What was measured:
[1] = target: HA glycoprotein of A/silky chicken/Hong Kong/SF189/2001 (H5N1, clade 3) (influenza A virus A/silky chicken/Hong Kong/SF189/2001 (H5N1))
[2] = target: HA glycoprotein of A/chicken/Henan/16/2004 (H5N1, clade 8) (influenza A virus A/chicken/Henan/16/2004 (H5N1))
[3] = target: HA glycoprotein of A/chicken/Guangxi/12/2004 (H5N1, clade 2.4) (influenza A virus A/chicken/Guangxi/12/2004 (H5N1))
[4] = target: HA glycoprotein of A/Hong Kong/156/1997 (H5N1, clade 0) (influenza A virus A/Hong Kong/156/1997 (H5N1)) (UniProt O56140)
[5] = target: HA glycoprotein of A/goose/Guiyang/337/2006 (H5N1, clade 4) (influenza A virus A/goose/Guiyang/337/2006 (H5N1))
[6] = target: HA glycoprotein of A/Thailand/(KAN-1)/2004 (H5N1, clade 1) (influenza A virus A/Thailand/(KAN-1)/2004 (H5N1))
[7] = target: HA glycoprotein of A/Indonesia/5/2005 (H5N1, clade 2.1.3.2) (influenza A virus A/Indonesia/5/2005 (H5N1))
[8] = target: HA glycoprotein of A/duck/Guangxi/1378/2004 (H5N1, clade 5) (influenza A virus A/duck/Guangxi/1378/2004 (H5N1))
[9] = target: HA glycoprotein of A/chicken/Korea/es/2003 (H5N1, clade 2.5) (influenza A virus A/chicken/Korea/es/2003 (H5N1))
[10] = target: HA glycoprotein of A/Shenzhen/406H/2006 (H5N1, clade 2.3.4) (influenza A virus A/Shenzhen/406H/2006 (H5N1))
[11] = target: HA glycoprotein of A/Turkey/65596/2006 (H5N1, clade 2.2.1) (influenza A virus A/Turkey/65596/2006 (H5N1))
[12] = target: HA glycoprotein of A/common magpie/Hong Kong/5052/2007 (H5N1, clade 2.3.2.1) (influenza A virus A/common magpie/Hong Kong/5052/2007 (H5N1))
[13] = target: HA glycoprotein of A/goose/Shantou/1621/2005 (H5N1, clade 9) (influenza A virus A/goose/Shantou/1621/2005 (H5N1))
[14] = target: HA glycoprotein of A/blackbird/Hunan/1/2004 (H5N1, clade 6) (influenza A virus A/blackbird/Hunan/1/2004 (H5N1))
[15] = target: HA glycoprotein of A/Chicken/Vietnam /NCVD-16/08 (H5N1, clade 7.1) (influenza A virus A/Chicken/Vietnam/NCVD-16/08 (H5N1))
[16] = target: HA glycoprotein of A/Chicken/Vietnam/NCVD-03/08 (H5N1, clade 7.1) (influenza A virus A/Chicken/Vietnam/NCVD-03/08 (H5N1))

Substance: 65C6, full-length human IgG1 (antibody)
- IC50 of neutralisation of pseudovirus bearing this HA [1]: 0.011 µg/mL
- IC50 of neutralisation of pseudovirus bearing this HA [2]: 0.014 µg/mL
- IC50 of neutralisation of pseudovirus bearing this HA [3]: 0.005 µg/mL
- IC50 of neutralisation of pseudovirus bearing this HA [4]: 0.005 µg/mL
- IC50 of neutralisation of pseudovirus bearing this HA [5]: 0.025 µg/mL
- IC50 of neutralisation of pseudovirus bearing this HA [6]: 0.029 µg/mL
- IC50 of neutralisation of pseudovirus bearing this HA [7]: 0.004 µg/mL
- IC50 of neutralisation of pseudovirus bearing this HA [8]: 0.005 µg/mL
- IC50 of neutralisation of pseudovirus bearing this HA [9]: 0.005 µg/mL
- IC50 of neutralisation of pseudovirus bearing this HA [10]: 0.02 µg/mL
- IC50 of neutralisation of pseudovirus bearing this HA [11]: 0.002 µg/mL
- IC50 of neutralisation of pseudovirus bearing this HA [12]: 0.034 µg/mL
- IC50 of neutralisation of pseudovirus bearing this HA [13]: 0.007 µg/mL
- IC50 of neutralisation of pseudovirus bearing this HA [14]: 0.007 µg/mL

Substance: 100F4, full-length human IgG1 (antibody)
- IC50 of neutralisation of pseudovirus bearing this HA [1]: 0.022 µg/mL
- IC50 of neutralisation of pseudovirus bearing this HA [2]: 0.036 µg/mL
- IC50 of neutralisation of pseudovirus bearing this HA [3]: 0.015 µg/mL
- IC50 of neutralisation of pseudovirus bearing this HA [4]: 0.05 µg/mL
- IC50 of neutralisation of pseudovirus bearing this HA [5]: 0.019 µg/mL
- IC50 of neutralisation of pseudovirus bearing this HA [6]: 0.067 µg/mL
- IC50 of neutralisation of pseudovirus bearing this HA [7]: 0.013 µg/mL
- IC50 of neutralisation of pseudovirus bearing this HA [8]: 0.021 µg/mL
- IC50 of neutralisation of pseudovirus bearing this HA [9]: 0.016 µg/mL
- IC50 of neutralisation of pseudovirus bearing this HA [10]: 0.052 µg/mL
- IC50 of neutralisation of pseudovirus bearing this HA [11]: 0.004 µg/mL
- IC50 of neutralisation of pseudovirus bearing this HA [12]: 0.066 µg/mL
- IC50 of neutralisation of pseudovirus bearing this HA [13]: 0.011 µg/mL
- IC50 of neutralisation of pseudovirus bearing this HA [14]: 0.033 µg/mL

Substance: AVFluIgG03, full-length human IgG1 (antibody)
- IC50 of neutralisation of pseudovirus bearing this HA [1]: 0.069 µg/mL
- IC50 of neutralisation of pseudovirus bearing this HA [15]: 0.03 µg/mL
- IC50 of neutralisation of pseudovirus bearing this HA [4]: 0.008 µg/mL
- IC50 of neutralisation of pseudovirus bearing this HA [7]: 4.75 µg/mL
- IC50 of neutralisation of pseudovirus bearing this HA [8]: 0.009 µg/mL
- IC50 of neutralisation of pseudovirus bearing this HA [10]: 0.002 µg/mL
- IC50 of neutralisation of pseudovirus bearing this HA [11]: 1.86 µg/mL
- IC50 of neutralisation of pseudovirus bearing this HA [13]: 0.018 µg/mL
- IC50 of neutralisation of pseudovirus bearing this HA [16]: 0.069 µg/mL
- IC50 of neutralisation of pseudovirus bearing this HA [14]: 0.004 µg/mL
